Results: PMC2175313

What was measured:
C.PvuII [1] = assay: EMSA
C.PvuII [2] = assay: competition

| Substance | K half (C.PvuII [1]) [nM] | binding signal (% loss of shifted WWWW band) (C.PvuII [2]) |
| --- | --- | --- |
| WWWW C-box 126-mer (symmetrized, spacer TGTA) | 200 | – |
| WWRR C-box 126-mer (OL intact) | – | 95 |
